US20230143604A1, “QW DOSING OF GIP RECEPTOR AGONIST PEPTIDE COMPOUNDS AND USES THEREOF” (TAKEDA PHARMACEUTICAL COMPANY LIMITED, priority 2020, published 2023)
Starred links: 1 amine or outer side, 2 acyl side, 3 side chain; linkers in the order of their positions; H or OH if unused. Non-standard residues stand in square brackets, D forms with d. Groups on a side chain read outwards from the residue. No end group written: not given here. *: point of attachment. 2OEGgEgE‑C18 diacid = O=C(O)CCCCCCCCCCCCCCCCC(=O)N[C@@H](CCC(=O)N[C@@H](CCC(=O)NCCOCCOCC(=O)NCCOCCOCC(=O)*)C(=O)O)C(=O)O; C18 diacid = O=C(O)CCCCCCCCCCCCCCCCC(=O)*; C17 diacid = O=C(O)CCCCCCCCCCCCCCCC(=O)*; γGlu = O=C(O)[C@H](CCC(=O)[*:2])N[*:1]; NMeY = CN[C@@H](Cc1ccc(O)cc1)C(=O)O; AEEA = NCCOCCOCC(=O)O; Aib = CC(C)(N)C(=O)O

Tests used:
[1] = molecular target: T1, full-length human GIPR with an N-terminal FLAG tag (human, UniProt P48546 22-466); test: cell-based or functional assay
T1 sequence (looked up): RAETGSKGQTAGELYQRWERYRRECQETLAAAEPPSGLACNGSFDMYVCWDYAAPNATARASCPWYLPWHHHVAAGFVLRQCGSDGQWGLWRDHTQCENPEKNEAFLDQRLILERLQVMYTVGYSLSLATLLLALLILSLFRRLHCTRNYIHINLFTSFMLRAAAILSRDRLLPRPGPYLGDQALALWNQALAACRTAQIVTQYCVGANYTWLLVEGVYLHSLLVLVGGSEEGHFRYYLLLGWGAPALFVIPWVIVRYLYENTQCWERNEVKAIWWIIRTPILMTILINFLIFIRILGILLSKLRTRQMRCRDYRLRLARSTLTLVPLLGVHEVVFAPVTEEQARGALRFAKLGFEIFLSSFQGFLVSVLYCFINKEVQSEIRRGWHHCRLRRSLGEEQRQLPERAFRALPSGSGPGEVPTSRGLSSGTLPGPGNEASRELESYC

[2] = molecular target: full-length human GLP-1R with an N-terminal FLAG tag (human, UniProt P43220 24-463); test: cell-based or functional assay

Binder: YXEGTFISDYSIXXDSXAQXDFVNWLLAQRG (N-terminus H; Aib at 2,13,17,20; Lys(G5-C18 diacid) at 14; C-terminal OH) [Compound No. 150]
- Human GIPR cAMP EC50, HEK293T [1]: 0.0004 nM
- Human GLP1R cAMP EC50, HEK293T [2]: 13.5 nM

Binder: YXEGTFISDYSIXXDSAAQXDFVNWLLAQRG (N-terminus H; Aib at 2,13,20; Lys(G5-C18 diacid) at 14; C-terminal OH) [Compound No. 151]
- Human GIPR cAMP EC50, HEK293T [1]: 0.0003 nM
- Human GLP1R cAMP EC50, HEK293T [2]: 5.01 nM

Binder: YXEGTFISDYSIXXDSXAQADFVNWLLAQRG (N-terminus H; Aib at 2,13,17; Lys(G5-C18 diacid) at 14; C-terminal OH) [Compound No. 152]
- Human GIPR cAMP EC50, HEK293T [1]: 0.0006 nM
- Human GLP1R cAMP EC50, HEK293T [2]: 33.1 nM

Binder: Y[Aib]EGTFISDYSIALDKIAQ[Aib]K([AEEA-AEEA-γGlu-γGlu-C18 diacid])FVEWLLAQRG-OH [Compound No. 153]
- Human GIPR cAMP EC50, HEK293T [1]: 0.0003 nM
- Human GLP1R cAMP EC50, HEK293T [2]: 6.76 nM

Binder: Y[Aib]EGTFISDYSIALDKAAQ[Aib]K([AEEA-AEEA-γGlu-γGlu-C18 diacid])FVEWLLAQRG-OH [Compound No. 154]
- Human GIPR cAMP EC50, HEK293T [1]: 0.0003 nM
- Human GLP1R cAMP EC50, HEK293T [2]: 8.91 nM

Binder: [NMeY][Aib]EGTFISDYSIALDR[Aib]HQ[Aib]NFVNWLLAQK([AEEA-AEEA-γGlu-C18 diacid])PSSGAPPPS-NH2 [Compound No. 1]
- Human GIPR cAMP EC50, HEK293T [1]: 0.0004 nM
- Human GLP1R cAMP EC50, HEK293T [2]: 10.5 nM

B1: Compound No. 155 (peptide)
peptide: Y[Aib]EGTFISDYSIALDK[Aib]AQAK([AEEA-AEEA-γGlu-γGlu-C18 diacid])FVEWLLAQRG-OH
modifications: N-terminus assumed
SMILES: CC[C@H](C)[C@H](NC(=O)[C@H](CO)NC(=O)[C@H](Cc1ccc(O)cc1)NC(=O)[C@H](CC(=O)O)NC(=O)[C@H](CO)NC(=O)[C@@H](NC(=O)[C@H](Cc1ccccc1)NC(=O)[C@@H](NC(=O)CNC(=O)[C@H](CCC(=O)O)NC(=O)C(C)(C)NC(=O)[C@@H](N)Cc1ccc(O)cc1)[C@@H](C)O)[C@@H](C)CC)C(=O)N[C@@H](C)C(=O)N[C@@H](CC(C)C)C(=O)N[C@@H](CC(=O)O)C(=O)N[C@@H](CCCCN)C(=O)NC(C)(C)C(=O)N[C@@H](C)C(=O)N[C@@H](CCC(N)=O)C(=O)N[C@@H](C)C(=O)N[C@@H](CCCCNC(=O)COCCOCCNC(=O)COCCOCCNC(=O)CC[C@H](NC(=O)CC[C@H](NC(=O)CCCCCCCCCCCCCCCCC(=O)O)C(=O)O)C(=O)O)C(=O)N[C@@H](Cc1ccccc1)C(=O)N[C@H](C(=O)N[C@@H](CCC(=O)O)C(=O)N[C@@H](Cc1c[nH]c2ccccc12)C(=O)N[C@@H](CC(C)C)C(=O)N[C@@H](CC(C)C)C(=O)N[C@@H](C)C(=O)N[C@@H](CCC(N)=O)C(=O)N[C@@H](CCCNC(=N)N)C(=O)NCC(=O)O)C(C)C
- Human GIPR cAMP EC50, HEK293T [1]: 0.0008 nM
- Human GLP1R cAMP EC50, HEK293T [2]: 85.1 nM

Binder: [NMeY][Aib]EGTFISDYSIALDR[Aib]AQ[Aib]K([AEEA-AEEA-γGlu-γGlu-C18 diacid])FVNWLLAQRGGGGS-NH2 [Compound No. 21]
- Human GIPR cAMP EC50, HEK293T [1]: 0.0004 nM
- Human GLP1R cAMP EC50, HEK293T [2]: 34.7 nM

Binder: [NMeY][Aib]EGTFISDYSIAK([G5-γGlu-C17 diacid])DR[Aib]AQ[Aib]DFVNWLLAQRPSSGAPPPS-NH2 [Compound No. 22]
- Human GIPR cAMP EC50, HEK293T [1]: 0.0005 nM
- Human GLP1R cAMP EC50, HEK293T [2]: 525 nM

Binder: [NMeY][Aib]EGTFISDYSIALDRK([AEEA-AEEA-γGlu-C18 diacid])AQ[Aib]DFVNWLLAQRPSSGAPPPS-NH2 [Compound No. 23]
- Human GIPR cAMP EC50, HEK293T [1]: 0.0003 nM
- Human GLP1R cAMP EC50, HEK293T [2]: 50.1 nM

Binder: [NMeY][Aib]EGTFISDYSIAK([G5-γGlu-C18 diacid])DR[Aib]AQ[Aib]DFVNWLLAQRPSSGAPPPS-NH2 [Compound No. 24]
- Human GIPR cAMP EC50, HEK293T [1]: 0.0004 nM
- Human GLP1R cAMP EC50, HEK293T [2]: 191 nM

Binder: [NMeY][Aib]EGTFISDYSIALDR[Aib]K([AEEA-AEEA-γGlu-C17 diacid])Q[Aib]DFVNWLLAQRPSSGAPPPS-NH2 [Compound No. 25]
- Human GIPR cAMP EC50, HEK293T [1]: 0.0019 nM
- Human GLP1R cAMP EC50, HEK293T [2]: 145 nM

Binder: [NMeY][Aib]EGTFISDYSI[Aib]LDRK([AEEA-AEEA-γGlu-γGlu-C18 diacid])AQ[Aib]NFVNWLLAQRPSSGAPPPS-NH2 [Compound No. 26]
- Human GIPR cAMP EC50, HEK293T [1]: 0.0003 nM
- Human GLP1R cAMP EC50, HEK293T [2]: 38.9 nM

Binder: [NMeY][Aib]EGTFISDYSI[Aib]K([AEEA-AEEA-γGlu-γGlu-C18 diacid])DR[Aib]AQ[Aib]NFVNWLLAQRPSSGAPPPS-NH2 [Compound No. 28]
- Human GIPR cAMP EC50, HEK293T [1]: 0.0003 nM
- Human GLP1R cAMP EC50, HEK293T [2]: 20.9 nM

Binder: [NMeY][Aib]EGTFISDYSIALDRIHQ[Aib]NFVNWLLAQK([AEEA-AEEA-γGlu-C18 diacid])PSSGAPPPS-NH2 [Compound No. 2]
- Human GIPR cAMP EC50, HEK293T [1]: 0.0003 nM
- Human GLP1R cAMP EC50, HEK293T [2]: 525 nM

Binder: [NMeY][Aib]EGTFISDYSI[Aib]K([AEEA-AEEA-γGlu-γGlu-C17 diacid])DR[Aib]AQ[Aib]NFVNWLLAQSPSSGAPPPS-NH2 [Compound No. 29]
- Human GIPR cAMP EC50, HEK293T [1]: 0.0004 nM
- Human GLP1R cAMP EC50, HEK293T [2]: 417 nM

Binder: [NMeY][Aib]EGTFISDYSIALDR[Aib]AQ[Aib]K([AEEA-AEEA-γGlu-γGlu-C17 diacid])FVNWLLAQRGGGGS-NH2 [Compound No. 30]
- Human GIPR cAMP EC50, HEK293T [1]: 0.0006 nM
- Human GLP1R cAMP EC50, HEK293T [2]: 105 nM

Binder: [NMeY][Aib]EGTFISDYSIALDR[Aib]K([AEEA-AEEA-γGlu-γGlu-C17 diacid])Q[Aib]NFVNWLLAQSGGGGS-NH2 [Compound No. 31]
- Human GIPR cAMP EC50, HEK293T [1]: 0.0003 nM
- Human GLP1R cAMP EC50, HEK293T [2]: 170 nM

Binder: [NMeY][Aib]EGTFISDYSI[Aib]K([AEEA-AEEA-γGlu-γGlu-C17 diacid])DR[Aib]AQ[Aib]NFVNWLLAQRGGGGS-NH2 [Compound No. 32]
- Human GIPR cAMP EC50, HEK293T [1]: 0.0003 nM
- Human GLP1R cAMP EC50, HEK293T [2]: 1000 nM

Binder: [NMeY][Aib]EGTFISDYSI[Aib]LDR[Aib]AQ[Aib]NFVNWLLAQK([AEEA-AEEA-γGlu-γGlu-C17 diacid])GGGGS-NH2 [Compound No. 33]
- Human GIPR cAMP EC50, HEK293T [1]: 0.0008 nM
- Human GLP1R cAMP EC50, HEK293T [2]: 437 nM

Binder: [NMeY][Aib]EGTFISDYSIAK([G5-γGlu-γGlu-C18 diacid])DR[Aib]AQ[Aib]NFVNWLLAQRPSSGAPPPS-NH2 [Compound No. 34]
- Human GIPR cAMP EC50, HEK293T [1]: 0.0004 nM
- Human GLP1R cAMP EC50, HEK293T [2]: 1000 nM

Binder: [NMeY][Aib]EGTFISDYSIALDR[Aib]AQ[Aib]K([AEEA-AEEA-γGlu-γGlu-C18 diacid])FVNWLLAQRPSSGAPPPS-NH2 [Compound No. 35]
- Human GIPR cAMP EC50, HEK293T [1]: 0.0007 nM
- Human GLP1R cAMP EC50, HEK293T [2]: 89.1 nM

Binder: YXEGTFISDYSIAXDRXAQXDFVNWLLAQSPSSGAPPPS (N-methyl Tyr 1; Aib at 2,17,20; Lys(G5-C18 diacid) at 14; C-terminal NH2) [Compound No. 38]
- Human GIPR cAMP EC50, HEK293T [1]: 0.0006 nM
- Human GLP1R cAMP EC50, HEK293T [2]: 45.7 nM

Binder: [NMeY][Aib]EGTFISDYSIAK([AEEA-AEEA-γGlu-C18 diacid])DRIHQQNFVNWLLAQRPSSGAPPPS-NH2 [Compound No. 3]
- Human GIPR cAMP EC50, HEK293T [1]: 0.0006 nM
- Human GLP1R cAMP EC50, HEK293T [2]: 10.5 nM

Binder: [NMeY][Aib]EGTFISDYSIALDR[Aib]AQ[Aib]K(2OEGgEgE‑C18 diacid)FVNWLLAQSG-OH [Compound No. 42]
- Human GIPR cAMP EC50, HEK293T [1]: 0.0008 nM
- Human GLP1R cAMP EC50, HEK293T [2]: 5.5 nM

Binder: YXEGTFISDYSIAXDRXAQXDFVNWLLAQRPSSGAPPPS (N-methyl Tyr 1; Aib at 2,17,20; Lys(G5-C18 diacid) at 14; C-terminal OH) [Compound No. 43]
- Human GIPR cAMP EC50, HEK293T [1]: 0.001 nM
- Human GLP1R cAMP EC50, HEK293T [2]: 61.7 nM

Binder: YXEGTFISDYSIAXDRXAQXNFVNWLLAQRPSSGAPPPS (N-methyl Tyr 1; Aib at 2,17,20; Lys(G5-C18 diacid) at 14; C-terminal OH) [Compound No. 44]
- Human GIPR cAMP EC50, HEK293T [1]: 0.0017 nM
- Human GLP1R cAMP EC50, HEK293T [2]: 10.7 nM

Binder: YXEGTFISDYSIAXDRXAQXNFVNWLLAQSPSSGAPPPS (N-methyl Tyr 1; Aib at 2,17,20; Lys(G5-C18 diacid) at 14; C-terminal OH) [Compound No. 45]
- Human GIPR cAMP EC50, HEK293T [1]: 0.0006 nM
- Human GLP1R cAMP EC50, HEK293T [2]: 8.22 nM
